Earlier results, collected in article PMC3991732.

Molecular target: ubiquitin (Homo sapiens) (UniProt P0CG48)
Assay: NMR

Chain of CD2AP SH3-C (Q9Y5K6 269-330): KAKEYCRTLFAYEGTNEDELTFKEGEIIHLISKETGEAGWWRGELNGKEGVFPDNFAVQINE

Kd: 132 µM
Substance: CD2AP SH3-C (from UniProt Q9Y5K6)
